Data taken from patent US20260055200A1, “COMBINATION THERAPIES” (Alligator Bioscience AB, priority 2022, published 2026).
Entries after “also recorded” stand apart in the source; their conditions may differ.

Tested on: metastatic pancreatic ductal adenocarcinoma
Assay: OPTIMIZE-1 anti-tumour activity per RECIST v. 1.1 (ORR, BOR, DCR, DoR, time to progression, PFS, OS)
Type: in vivo, human
[1] = 450 μg/kg mitazalimab, N = 5, Table 42
[2] = 450 μg/kg mitazalimab, N = 5, safety set, Table 25
[3] = 900 μg/kg mitazalimab + mFOLFIRINOX, FAS N = 23, futility analysis, responses need not be confirmed
[4] = 900 μg/kg mitazalimab + mFOLFIRINOX, FAS N = 57
[5] = 900 μg/kg mitazalimab + mFOLFIRINOX, FAS N = 57, including unconfirmed responses
[6] = 900 μg/kg mitazalimab + mFOLFIRINOX, FAS N = 57, 95% CI (5.8-9.4)
[7] = 900 μg/kg mitazalimab + mFOLFIRINOX, FAS N = 57, first block of Table 49
[8] = 900 μg/kg mitazalimab + mFOLFIRINOX, FAS N = 57, second block of Table 49
[9] = 900 μg/kg mitazalimab + mFOLFIRINOX, FAS, n = 18
[10] = 900 μg/kg mitazalimab, N = 23, FAS, data cut-off 2022 Dec. 8
[11] = 900 μg/kg mitazalimab, N = 38, safety set, Table 25
[12] = 900 μg/kg mitazalimab, N = 65, Table 42
[13] = Overall, N = 43, safety set, Table 25
[14] = futility analysis (FAS), 900 μg/kg mitazalimab and mFOLFIRINOX, 23 patients
[15] = individual patients, End of Treatment visit, 900 μg/kg mitazalimab + mFOLFIRINOX, futility analysis
[16] = individual patients, Unscheduled visit, 900 μg/kg mitazalimab + mFOLFIRINOX, futility analysis
[17] = individual patients, visit Cycle 4, 900 μg/kg mitazalimab + mFOLFIRINOX, futility analysis
[18] = individual patients, visit Cycle 8, 900 μg/kg mitazalimab + mFOLFIRINOX, futility analysis

Experimental: The interim analysis was based on objective response rate (ORR) observed for all patients dosed at the mitazalimab RP2D. The interim analysis included efficacy data up to 17 weeks of study treatment (8 cycles for mFOLFIRINOX and 4 cycles for gemcitabine plus nab-paclitaxel).
A CT scan is performed at screening (within 28 days of first dose), 9 weeks after start of study treatment (end of cycle 4 for mFOLFIRINOX combination and at end of Cycle 2 for gemcitabine plus nab-paclitaxel treatment) and thereafter at every 8th week assuming no treatment delays. Additional CT scans may be performed at the discretion of the Investigator at unscheduled visits. The CT scans were evaluated according to RECIST v. […] Patients with response (PR or CR) can have a confirmatory CT scan at least 4 weeks later to confirm the response.
The evaluation of tumour response was done according to RECIST v. 1.1 by the investigational sites using CT scans according to Example 3 RECIST v. […] Patients with PD can discontinue study treatment. However, patients with suspected progression are allowed to continue on treatment if they are considered to be clinically stable in the opinion of the Investigator until clinical or radiological progression is documented.
For the interim analysis, the ORR was based on the response evaluation after 8 cycles for mitazalimab in combination with mFOLFIRINOX or 4 cycles for mitazalimab in combination with gemcitabine plus nab-paclitaxel (i.e., approximately 4 months after first dose). […] In addition, ORR was presented for each study visit. Patients not evaluable for ORR and who completed at least 2 cycles were considered as non-responders.
All secondary efficacy endpoint were presented using descriptive statistics. Best Overall Response (BOR) for each patient will be defined as the best response from RECIST v. 1.1 categories CR, PR, SD and PD at any time during the study. Disease control rate will be defined as either CR, PR or SD at each visit as determined by RECIST v. […] The duration of response (DoR) was defined as number of days from initial response of CR or PR to progressive disease or death due to underlying disease, whichever came first. Duration of Stable Disease (SD) was defined as number of days from first dose of mitazalimab to progressive disease or death, whichever came first. Time to next anti-cancer therapy was defined as number of days from the time from first dose of mitazalimab to next treatment initiated.

B1: Mitazalimab: agonistic, human monoclonal (IgG1) antibody targeting CD40 (antibody, chains of the INN, looked up, V domains shown)
VH: EVQLLESGGGLVQPGGSLRLSCAASGFTFSTYGMHWVRQAPGKGLEWLSYISGGSSYIFYADSVRGRFTISRDNSENALYLQMNSLRAEDTAVYYCARILRGGSGMDLWGQGTLVTVSS
VL: QSVLTQPPSASGTPGQRVTISCTGSSSNIGAGYNVYWYQQLPGTAPKLLIYGNINRPSGVPDRFSGSKSGTSASLAISGLRSEDEADYYCAAWDKSISGLVFGGGTKLTVL
- Discontinued study: Death due to disease progression, number of patients [1]: 4
- Discontinued study: Death due to disease progression, percentage relative to number discontinued [1]: 80.0%
- Discontinued treatment: Death, number of patients [1]: 0
- Discontinued treatment: Death, percentage relative to number discontinued [1]: 0.0%
- Discontinued treatment: No longer clinically benefiting, number of patients [1]: 0
- Discontinued treatment: No longer clinically benefiting, percentage relative to number discontinued [1]: 0.0%
- Discontinued treatment: Progressive disease, number of patients [1]: 4
- Discontinued treatment: Progressive disease, percentage relative to number discontinued [1]: 80.0%
- Discontinued study: Death due to disease progression, number of patients [2]: 2
- Discontinued study: Death due to disease progression, percentage of patients [2]: (40.0) %
- Discontinued treatment: Clear clinical deterioration, number of patients [2]: 0
- Discontinued treatment: Clear clinical deterioration, percentage of patients [2]: (0.0) %
- Discontinued treatment: Death due to disease progression, number of patients [2]: 2
- Discontinued treatment: Death due to disease progression, percentage of patients [2]: (40.0) %
- Discontinued treatment: Progressive disease, number of patients [2]: 2
- Discontinued treatment: Progressive disease, percentage of patients [2]: (40.0) %
- Disease control rate (FAS) (900 μg/kg Mitazalimab (N = 57) with mFOLFIRINOX, CR, PR or SD as best overall response, RECIST 1.1): 44 (77.2)
- Disease control rate (CR, PR or SD), % (900 μg/kg mitazalimab + mFOLFIRINOX, FAS N = 23, futility analysis): (91.3) %
- Best Overall Response: Partial response, % [3]: (52.2) %
- Best Overall Response: Progressive disease, % [3]: (8.7) %
- Best Overall Response: Stable disease, % [3]: (39.1) %
- Responders (complete or partial response, RECIST 1.1), % [3]: (52.2) %
- BOR: Not evaluable, number of patients [4]: 1
- BOR: Not evaluable, percentage of patients [4]: (1.8) %
- Time to progression: Censored patients, % [4]: (54.4) %
- Time to progression: Patients with event, % [4]: (45.6) %
- BOR: Complete response, number of patients [5]: 0
- BOR: Complete response, percentage of patients [5]: (0.0) %
- BOR: Partial response, number of patients [5]: 25
- BOR: Partial response, percentage of patients [5]: (43.9) %
- BOR: Progressive disease, number of patients [5]: 12
- BOR: Progressive disease, percentage of patients [5]: (21.1) %
- BOR: Stable disease, number of patients [5]: 19
- BOR: Stable disease, percentage of patients [5]: (33.3) %
- ORR: Confidence Interval of responders (two-sided exact binomial 90%) [5]: 32.6-55.6
- ORR: Responders, number of patients [5]: 25
- ORR: Responders, percentage of patients [5]: (43.9) %
- Progression-free survival: Median time to event [6]: 7.2 months
- Time to progression: Median time to event [6]: 7.2 months
- Progression-free survival: Censored patients, % [7]: (52.6) %
- Progression-free survival: Patients with event, % [7]: (47.4) %
- Overall survival: Censored patients, % [8]: (78.9) %
- Overall survival: Patients with event, % [8]: (21.1) %
- Duration of response: Censored patients, % [9]: (72.2) %
- Duration of response: Patients with event, % [9]: (27.8) %
- Time to response: Median time to event (900 μg/kg mitazalimab + mFOLFIRINOX, FAS, n = 18, 95% CI (1.9-3.7)): 2.2 months
- Duration of response: Median time to event (900 μg/kg mitazalimab + mFOLFIRINOX, FAS, n = 18, 95% CI (5.5; NE)): 8.7 months
- Discontinued study: Death due to disease progression, number of patients [10]: 1
- Discontinued study: Death due to disease progression, percentage of patients [10]: (4.3) %
- Discontinued treatment: Clear clinical deterioration, number of patients [10]: 1
- Discontinued treatment: Clear clinical deterioration, percentage of patients [10]: (4.3) %
- Discontinued treatment: Death due to disease progression, number of patients [10]: 1
- Discontinued treatment: Death due to disease progression, percentage of patients [10]: (4.3) %
- Discontinued treatment: Progressive disease, number of patients [10]: 2
- Discontinued treatment: Progressive disease, percentage of patients [10]: (8.7) %
- Discontinued study: Death due to disease progression, number of patients [11]: 1
- Discontinued study: Death due to disease progression, percentage of patients [11]: (2.6) %
- Discontinued treatment: Clear clinical deterioration, number of patients [11]: 1
- Discontinued treatment: Clear clinical deterioration, percentage of patients [11]: (2.6) %
- Discontinued treatment: Death due to disease progression, number of patients [11]: 1
- Discontinued treatment: Death due to disease progression, percentage of patients [11]: (2.6) %
- Discontinued treatment: Progressive disease, number of patients [11]: 3
- Discontinued treatment: Progressive disease, percentage of patients [11]: (7.89) %
- Discontinued study: Death due to disease progression, number of patients [12]: 15
- Discontinued study: Death due to disease progression, percentage relative to number discontinued [12]: 83.3%
- Discontinued treatment: Death, number of patients [12]: 1
- Discontinued treatment: Death, percentage relative to number discontinued [12]: 3.0%
- Discontinued treatment: No longer clinically benefiting, number of patients [12]: 3
- Discontinued treatment: No longer clinically benefiting, percentage relative to number discontinued [12]: 9.1%
- Discontinued treatment: Progressive disease, number of patients [12]: 19
- Discontinued treatment: Progressive disease, percentage relative to number discontinued [12]: 57.6%
- Discontinued study: Death due to disease progression, number of patients [13]: 3
- Discontinued study: Death due to disease progression, percentage of patients [13]: (7.0) %
- Discontinued treatment: Clear clinical deterioration, number of patients [13]: 1
- Discontinued treatment: Clear clinical deterioration, percentage of patients [13]: (2.3) %
- Discontinued treatment: Death due to disease progression, number of patients [13]: 3
- Discontinued treatment: Death due to disease progression, percentage of patients [13]: (7.0) %
- Discontinued treatment: Progressive disease, number of patients [13]: 5
- Discontinued treatment: Progressive disease, percentage of patients [13]: (11.6) %
- Discontinued treatment: Death, number of patients (Overall, Table 42): 1
- Discontinued treatment: Death, percentage relative to number discontinued (Overall, Table 42): 2.6%
- Discontinued treatment: No longer clinically benefiting, number of patients (Overall, Table 42): 3
- Discontinued treatment: No longer clinically benefiting, percentage relative to number discontinued (Overall, Table 42): 7.7%
- Discontinued treatment: Progressive disease, number of patients (Overall, Table 42): 24
- Discontinued treatment: Progressive disease, percentage relative to number discontinued (Overall, Table 42): 61.5%
- ORR [14]: 52.2%
- disease control rate [14]: 91.3%
- responders with a confirmed response via a subsequent scan (futility analysis, 900 μg/kg mitazalimab and mFOLFIRINOX): 8 out of 12
- Non-target lesion(s) response [15]: Non-CR/non-PD
- Overall response [15]: PD (progressive disease (PD))
- Target lesion(s) response [15]: PD (progressive disease (PD))
- Non-target lesion(s) response [16]: Non-CR/non-PD
- Overall response [16]: PD (progressive disease (PD)); also recorded: SD (stable disease (SD))
- Target lesion(s) response [16]: PD (progressive disease (PD)); also recorded: SD (stable disease (SD))
- Non-target lesion(s) response [17]: Non-CR/non-PD
- Overall response [17]: SD (stable disease (SD))
- Target lesion(s) response [17]: SD (stable disease (SD))
- Non-target lesion(s) response [18]: Non-CR/non-PD
- Overall response [18]: SD (stable disease (SD)); also recorded: PD (progressive disease (PD))
- Target lesion(s) response [18]: SD (stable disease (SD)); also recorded: PD (progressive disease (PD))
- Best Overall Response (individual patients, 900 μg/kg mitazalimab + mFOLFIRINOX, futility analysis, responses need not be confirmed): PD (progressive disease (PD)); also recorded: SD (stable disease (SD))
